# Assay: yeast display, Sf9 membrane polyspecificity reagent, FACS + sequencing; frameworks hold sequencing errors
# Procedure, shortened: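 Nanobodies from a synthetic yeast display library (Saccharomyces cerevisiae BJ5465), induced 36–48 hours with galactose, were stained 1 hour at 4 °C with 10% biotinylated, detergent-solubilized Sf9 membrane reagent, enriched on streptavidin microbeads, then FACS-sorted. Anti-HA (expression) and streptavidin (reagent binding) fluorescence set low and high (top ~1%) gates. Polyreactivity labels come from the gate of origin. Genes were colony-PCR amplified, MiSeq 2 × 250 sequenced and filtered by CDR length.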
row,Sequence,polyreactivity (PSR sort gate)
1,QVQLVESGGGLVQAGGSLRLSCAASGFIFGRYTMGWYRQAPWKERELVAAISGSGGRTYYADSVKGRFTISRDNAKNTVYLQMNSLKPEDTSVYYCATYGYFYYDYWGQGTQVTVSS,high polyreactivity
2,QVQLVESGGGLVQAGGSLRLSCAASGFIFGRYTMGWYRQATGKERELVAAISGSDVTTYYADSVKGRFTISRDNAKNTVYLQMNSLKPEDTAVYYCAADSPWAYYEYDYWGQGTHVTVSS,low polyreactivity
3,QVQLVESGGGLVQAGGSLRLSCAASGFIFGSNAMGWYRQAPGKERELVAAISRSGGSTYYADSVKGRFTISRDNAKNTVYLQMNSLKPEHTAVYYCASYLYKSRYLPEYDYWGQGTQVTVSS,high polyreactivity
4,QVQLVESGGGLVQAGGSLRLSCAASGFIFGSYTMGWYRQAPGKERELVAAITTGGSTNYADSVKGRFTISRDNAKNTVYLQMNSLKPEDTAVYYCAARTVGFYRYDYWGQGTQVTVSS,low polyreactivity
5,QVQLVESGGGLVQAGGSLRLSCAASGFIFGTNAMGWYRQAPGKERELVAAISIGDSTYYADSVKGRFTISRDNAKNTVYVQKNSLKPEDTAVYYCNARAYSIYLLQKTYAFNYWGQGTQVTVSS,low polyreactivity
6,QVQLVESGGGLVQAGGSLRLSCAASGFIFGTYAMGWYRQAPGKERELVAAISVGGGSTYYADSVKGRFTISRDNAKNSVYLQMNSLKPEDTAVYYCNALYNDHFSWFSFGYWGQGTQVTVSS,low polyreactivity
7,QVQLVESGGGLVQAGGSLRLSCAASGFIFGTYAMGWYRQAPGKERELVAAISVGGGSTYYADSVKGRFTISRDNAKNTVYLQMNSLKPEDTAVYYCAAVQLYQKHQITYVAHEYWGQGTQVTVSS,low polyreactivity
8,QVQLVESGGGLVQAGGSLRLSCAASGFIFGTYVMGWYRQAPGKERELVAAISESGGRTYYADSVKGRFTISRDNAKNTVYLQMNSLKPEDTAVYYCAKVRHIRFHYYYGYQSYYYWGQGTQVTVSS,high polyreactivity
9,QVQLVESGGGLVQAGGSLRLSCAASGFIFGWYAMGWYRQAPGKERELVAVIRSGGRTNYADSVKGRFTISRDNAKNTVYLQMNSLKPEDTAVYDCNAVGGRGYGGGFWGQGTQVTVSS,high polyreactivity
10,QVQLVESGGGLVQAGGSLRLSCAASGFIFGYNAMGWYRQAPGKERELVAAIRAGDGSTYYADSVKGRFTISRDNAKNTVYLQMNSLKPEDTAVYYCAAAWRQSGYRYGYWGQGTQVTVSS,high polyreactivity
11,QVQLVESGGGLVQAGGSLRLSCAASGFIFGYNAMGWYRQAPGKERELVAAITWIGGTTYYADSVKGRFTISRDNAKNTVYLQMNSLKPEDTAVYYCARQRSYGRSSYSYGYDYWGQGTQVTVSS,high polyreactivity
12,QVQLVESGGGLVQAGGSLRLSCAASGFIFGYNAMGWYRQEPGKERELVARIRYRGARTYYADSVKGRFTISRDNAKNTVYLQMNSLKPEDTAVYYCAAVASWPGGYDYWGQGTQVTVSS,high polyreactivity
13,QVQLVESGGGLVQAGGSLRLSCAASGFIFGYNGMGWYRQAPGKERELVAGITYSDGSTYYADSVKGRFTISRDNAKNTVYLQMNSLKPEDTAVYYCAVDVIYYWAEDYDYWGQGTQVTVSS,low polyreactivity
14,QVQLVESGGGLVQAGGSLRLSCAASGFIFGYNTMGWYRQAPGKERELVAAISWSGGSTYYADSVKGRFTISRVNAKNSVYLQMNSLKPEDTAVYYCATVSRSYSELDYWGQGTQVTVSS,low polyreactivity
15,QVQLVESGGGLVQAGGSLRLSCAASGFIFGYYAMGWDRQAPGKERELVAAITSDGNTDYSDSVKGRFTISRDNAKNTVYLQMNSLKPEDTAVYYCATDWVDHYDYWGQGTQVTVSS,low polyreactivity
16,QVQLVESGGGLVQAGGSLRLSCAASGFIFGYYAMGWYRHAPGKERELVAAISYSGGSTYYADSVKGRFTISRDNAKNTVYLQMYSLKPEDTAVYYCAKYGQSNYDWGQGTQVTLSS,high polyreactivity
17,QVQLVESGGGLVQAGGSLRLSCAASGFIFGYYAMGWYRPAPGNERELVAAIDWSDGSTYYADSVKGRFTISRDNAKNTVYLQMNSLKPEDTAVYYSAVDTYSQQAGDYEYWGQGTQVTVSS,low polyreactivity
18,QVQLVESGGGLVQAGGSLRLSCAASGFIFGYYAMGWYRQAPGKERELVAAISRSGGRTYYADSVKGRFTISRDNAKNTVYLQMNSLKPEDTAVYYCAKGSNRSRGYYWGQGTQVTVSS,high polyreactivity
19,QVQLVESGGGLVQAGGSLRLSCAASGFIFGYYAMGWYRQAPGKERELVAAISSGGTTTYYADSVKGRFTISRDNAKNTVYLQMNSLKPEDTAVYYCAKVSQRRVDNSDYDYWGQGTQVTVSS,high polyreactivity
20,QVQLVESGGGLVQAGGSLRLSCAASGFIFGYYAMGWYRQAPGKERELVAAISSRGGSTYYADSVKGRFTISRDNAKNTVYLQMNSLKPEDTAVYYCAVRRVSFRHKFGQYDYWGQGTQVTVSA,high polyreactivity
21,QVQLVESGGGLVQAGGSLRLSCAASGFIFGYYAMGWYRQAPGKERELVAAISTRGSTYYADSVKGRFTISRDNAKYTVYLQMNSLKPEDTAVYYCNAGWGYRRDYWGQGTQVTVSS,high polyreactivity
22,QVQLVESGGGLVQAGGSLRLSCAASGFIFGYYAMGWYRQAPGKERELVAAISWNGGSTYYADSVKGRFTISRDNAKNTVYLQMNSLKPEDTAVYYCAADGYETYYDYDYWGQGTQVTVSS,high polyreactivity

row,Sequence,polyreactivity (PSR sort gate)
1,QVQLVESGGGLVQAGGSLRLSCAASGFIFGYYAMGWYRQAPGKERELVAAISYSGGSTYYADSVKGRFTISRDNAKNTVYLQMNSLKPEDTAVYYCAKYGQSNYDWGQGTQVTVSS,high polyreactivity
2,QVQLVESGGGLVQAGGSLRLSCAASGFIFGYYAMGWYRQAPGKERELVAAITTSAASTYYADSVKGRFTISRDNAKNTVYLQMNSLKPEDTAVYYCNAVLYKVSISEYDYWGQGTQVTVSS,high polyreactivity
3,QVQLVESGGGLVQAGGSLRLSCAASGFIFGYYGMGWYRQAPGKERELVAAITDGGSTTYADSVKGRFTISRDNAKNTVYLQMNSLKPEDTAVYYCNAEAGGFDYYGKTYRYGDYWGQGTQVTVSS,low polyreactivity
4,QVQLVESGGGLVQAGGSLRLSCAASGFIFHGYAMGWYRQAPGKERELVAAISGTGGSTYYADSVKGRFTISRDNAKNTVYLQMNSLKPEDTAVYYYKAERSGNGYWGQGTQVTVSS,high polyreactivity
5,QVQLVESGGGLVQAGGSLRLSCAASGFIFHLNAMGWYRQAPGKERELVAAIRSSGGSTYYADSVKGRFTISRDIAKNTVYFQMISMKREDTAVYYCAARGSSGLTRRGYYWGQGTQVNVSS,high polyreactivity
6,QVQLVESGGGLVQAGGSLRLSCAASGFIFHLYGMGWYRQATGKERELVAAISSGGRTYYADSVKGRFTISRDNAKNTVYLQMNSLKPEDTAVYYCAVYVAYLYSYYYWGQGTQVTVSS,low polyreactivity
7,QVQLVESGGGLVQAGGSLRLSCAASGFIFHRNAMGWYRPAPGKERELVASITKRGGNTYYADSVKGRFTISRDNAKNTVYLQMNSLKPEDTAVYYCATQLWGWDWKRDYWGQGTQVTVSS,high polyreactivity
8,QVQLVESGGGLVQAGGSLRLSCAASGFIFHYYAMGRYRQAPGKERELVAAISWNGGSTNYSDSVKGRFTISRDNAKNTVYLQMNSLKPEDTAVYYCATTDPYYDVDYWGQGTQVTVSS,low polyreactivity
9,QVQLVESGGGLVQAGGSLRLSCAASGFIFIGNTMGWYRQAPGKDRELVAAIRWSGGSTYYADSVKGRFTISRDNAKNTVYLQMNSLKPEDTAVYYCAARRWSKTRYYYWGQGTQVTVSS,high polyreactivity
10,QVQLVESGGGLVQAGGSLRLSCAASGFIFIHYAMGWYRQAPGKERELVAAINRRGSRTYYADSVKGRFTISRDNAKNTVYLQMNSLKPEDSAVYYCAAGSRTEYDYWGQGSQVTVSS,high polyreactivity
11,QVQLVESGGGLVQAGGSLRLSCAASGFIFIKYAMGWYRQAPGKERELVAAISSSGGSTYYADSVKGRFTISRDNAKNTVYLQMNSLKPEDTAVYYCAARTYRGLAYDYWGQGTQVTVSS,high polyreactivity
12,QVQLVESGGGLVQAGGSLRLSCAASGFIFIPYAKGWYRQAPGKERELVAAISVSDGTTYYADSVKGRFTISRDNAKNTVYFQMNSLKPEDTAVDYCAARRRAQQGTRDHDYWGQGTQVTVSS,high polyreactivity
13,QVQLVESGGGLVQAGGSLRLSCAASGFIFIRNAMGWYRQAPGKQRELVATIRYSGGNTYYADSVKGRFTISRDNAKNTVYLQMNSLNPEDTAVYYCAAGSGYWGRSPTRCGQGGYWGQGTQVTVSS,high polyreactivity
14,QVQLVESGGGLVQAGGSLRLSCAASGFIFIYDMGWYRQAPGKERELVAAITSSDGSTYYADSVKGRFTISRDNAKNTVYLQMNSLKPEDTAVYYCNAKYPWGNYNSVSYDYWGQGTQVTVSS,high polyreactivity
15,QVQLVESGGGLVQAGGSLRLSCAASGFIFKGYAMGWYRQAPGKERELVATINWSGGRTYYADSVKGRFTISRDNAKNTVYLQMNSLKPEDTAVYYCNVQVGTYAWWYRVGSWYDYWGQGTQVTVSS,high polyreactivity
16,QVQLVESGGGLVQAGGSLRLSCAASGFIFKHYAMGWYRQAPGKERELVAAITSSGGNTYYADSVKGRFTISRDNAKNTVYLQMNSLKPEDTAVYYCNARFRTLYWGQGTQVTVSS,high polyreactivity
17,QVQLVESGGGLVQAGGSLRLSCAASGFIFKLNAMGWYRQAPGKERELVATITRGGDTKYADSVKGRFTISRDNAKNTVYLQMNSLKPEDTAVYYCAAGYPYSYRDYYYWGQGTQVTVSS,high polyreactivity
18,QVQLVESGGGLVQAGGSLRLSCAASGFIFKQYAMGWYRQAPGKERELVAAISWTGGSTYYADSVKGRFTISRDNAKNTVYLQMNSLKPEDTAVYYCAAKRRTRQSYYTEYYWGQGTQVTVSS,high polyreactivity
19,QVQLVESGGGLVQAGGSLRLSCAASGFIFKRYAMGWYRQAPGKERELVAPITSNGGRTYYADSVKGRFTISRDNAKNTVYLQMNSLKPEHTAVYYCARDSQYYEQDDYWGQGTQVTVSS,high polyreactivity
20,QVQLVESGGGLVQAGGSLRLSCAASGFIFKRYAMGWYRQAPGKVRELGAAITGSGGSTYYADSVKGRFTISRDNAKNTVYLQMNSLKPEDTAVYYCARGNGGSLDYWGQGTQVTVSS,high polyreactivity
21,QVQLVESGGGLVQAGGSLRLSCAASGFIFKSNGMGRYRPEPGKERELVSAIRRSGGSTYYADSVKGRFSISRDYAKNTFYLQMNSLKPEVTAVYYCGIRRGVYTHWYDYWGQGTQVTVSS,high polyreactivity

# From the nanobody polyreactivity screen of Harvey et al. (2022)
